Source: PMC9164069, “NADPH–Cytochrome P450 Reductase Mediates the Fatty Acid Desaturation of ω3 and ω6 Desaturases from Mortierella alpina” (Current Issues in Molecular Biology, 2022)

How the values were obtained:
[1] = target: T1, NADPH-CytP450R (Homo sapiens, UniProt P16435); test: absorption shift of Cytb5 on reduction ([…] to […] nm); format: biochemical; settings: pH 7.5, 25 °C; 100 mM Hepes, 150 mM NaCl, 0.25 µM CytP450R, 5 µM human Cytb5, 5 µM NADPH
T1 construct: gene POR; soluble catalytic domain, C-terminal 614 residues (VRESSFV through SLDVWS), N-terminal His6 tag (pET15b), E. coli BL21(DE3), about 70 kDa
T1 sequence (P16435 64-677): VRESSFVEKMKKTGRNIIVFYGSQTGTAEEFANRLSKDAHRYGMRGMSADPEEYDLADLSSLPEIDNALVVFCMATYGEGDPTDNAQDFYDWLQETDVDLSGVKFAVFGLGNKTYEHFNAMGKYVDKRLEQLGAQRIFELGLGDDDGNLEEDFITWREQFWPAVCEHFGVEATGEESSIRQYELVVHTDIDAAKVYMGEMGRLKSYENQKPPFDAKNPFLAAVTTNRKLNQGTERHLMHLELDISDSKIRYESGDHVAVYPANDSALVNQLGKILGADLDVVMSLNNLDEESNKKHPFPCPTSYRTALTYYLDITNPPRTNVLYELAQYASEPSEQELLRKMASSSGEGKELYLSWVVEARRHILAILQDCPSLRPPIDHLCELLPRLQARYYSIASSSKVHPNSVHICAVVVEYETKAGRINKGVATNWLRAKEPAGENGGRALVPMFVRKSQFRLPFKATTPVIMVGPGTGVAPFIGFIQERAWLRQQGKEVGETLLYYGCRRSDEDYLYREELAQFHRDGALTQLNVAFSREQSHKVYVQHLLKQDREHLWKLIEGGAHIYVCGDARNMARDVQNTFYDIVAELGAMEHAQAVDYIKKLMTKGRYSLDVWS

[2] = substrate: CCCCC/C=C\C/C=C\C/C=C\C/C=C\CCCC(=O)SCCNC(=O)CCNC(=O)[C@H](O)C(C)(C)COP(=O)(O)OP(=O)(O)OC[C@H]1O[C@@H](n2cnc3c(N)ncnc32)[C@H](O)[C@@H]1OP(=O)(O)O; test: purified protein; format: biochemical, Mortierella alpina; settings: pH 7.5, 28 °C, 25 mM Hepes, 150 mM NaCl, 1 µM NADPH, 100 nM desaturase, 0.5 µM human Cytb5, 1 µM human CytP450R, 0.002% Fos-16
[3] = substrate: CCCCC/C=C\C/C=C\C/C=C\CCCCC(=O)SCCNC(=O)CCNC(=O)[C@H](O)C(C)(C)COP(=O)(O)OP(=O)(O)OC[C@H]1O[C@@H](n2cnc3c(N)ncnc32)[C@H](O)[C@@H]1OP(=O)(O)O; test: purified protein; format: biochemical, Mortierella alpina; settings: pH 7.5, 28 °C, 25 mM Hepes, 150 mM NaCl, 1 µM NADPH, 100 nM desaturase, 0.5 µM human Cytb5, 1 µM human CytP450R, 0.002% Fos-16
[4] = substrate: CCCCC/C=C\C/C=C\CCCCCCCC(=O)SCCNC(=O)CCNC(=O)[C@H](O)C(C)(C)COP(=O)(O)OP(=O)(O)OC[C@H]1O[C@@H](n2cnc3c(N)ncnc32)[C@H](O)[C@@H]1OP(=O)(O)O; test: purified protein; format: biochemical, Mortierella alpina; settings: pH 7.5, 28 °C, 25 mM Hepes, 150 mM NaCl, 1 µM NADPH, 100 nM desaturase, 0.5 µM human Cytb5, 1 µM human CytP450R, 0.002% Fos-16
[5] = substrate: CCCCCC/C=C\CCCCCCCC(=O)SCCNC(=O)CCNC(=O)[C@H](O)C(C)(C)COP(=O)(O)OP(=O)(O)OC[C@H]1O[C@@H](n2cnc3c(N)ncnc32)[C@H](O)[C@@H]1OP(=O)(O)O; test: purified protein; format: biochemical, Mortierella alpina; settings: pH 7.5, 28 °C, 25 mM Hepes, 150 mM NaCl, 1 µM NADPH, 100 nM desaturase, 0.5 µM human Cytb5, 1 µM human CytP450R, 0.002% Fos-16
[6] = substrate: CCCCCCCC/C=C\CCCCCCCC(=O)SCCNC(=O)CCNC(=O)[C@H](O)C(C)(C)COP(=O)(O)OP(=O)(O)OC[C@H]1O[C@@H](n2cnc3c(N)ncnc32)[C@H](O)[C@@H]1OP(=O)(O)O; test: purified protein; format: biochemical, Mortierella alpina; settings: pH 7.5, 28 °C, 25 mM Hepes, 150 mM NaCl, 1 µM NADPH, 100 nM desaturase, 0.5 µM human Cytb5, 1 µM human CytP450R, 0.002% Fos-16

`NC(=O)C1=CN([C@@H]2O[C@H](COP(=O)(O)OP(=O)(O)OC[C@H]3O[C@@H](n4cnc5c(N)ncnc54)[C@H](OP(=O)(O)O)[C@@H]3O)[C@@H](O)[C@H]2O)C=CC1` [NADPH] was tested, and the “absorption shift of Cytb5 on reduction (412 to 422, 521, 554 nm)” value [1] was “when NADPH was added, Cytb5 was instantly reduced”.

B1: M. alpina ω3 desaturase (Mortierella alpina) (protein)
chain: MAPPHVVDEQVRRRIVVEDEIKSKKQFERNYVPMDFTIKEIRDAIPAHLFIRDTTKSILHVVKDLVTIAIVFYCATFIETLPSLALRVPAWITYWIIQGTVMVGPWILAHECGHGAFSDSKTINTIFGWVLHSALLVPYQAWAMSHSKHHKGTGSMTKDVVFIPATRSYKGLPALEKPAVEEEVSEQEHHHHEESIFAETPIYTLGALLFVLTFGWPLYLIVNFSGHEAPHWVNHFQTVAPLYEPHQRKNIFYSNCGIVAMGSILTYLSMVFSPLTVFMYYGIPYLGVNAWIVCITYLQHTDPKVPHFRDNEWNFQRGAACTIDRSFGTIVNHLHHHIGDSHQCHHMFSQMPFYNAVEATKYLKAKLGKYYIFDDTPIAKALYRNWRECKFVEDEGDVVFYKH
notes: membrane desaturase expressed in Pichia pastoris (pPink-HC) with 3C site, ZZ-tag and RGS-His10-tag; tags cut off by rhinovirus 3C protease; Fos-Choline-16 solubilized, IgG Sepharose and size exclusion purified
Work on B1 yielded a Km [2] of 157.0 ± 23.8 µM, a kcat [2] of 0.0233 ± 0.00167 s⁻¹ and a kcat/Km [2] of 167 M⁻¹ s⁻¹. It also gave a Km [3] of 87.8 ± 9.9 µM, a kcat [3] of 0.168 ± 0.00667 s⁻¹ and a kcat/Km [3] of 2000 M⁻¹ s⁻¹. The Km [4] was 16.0 ± 2.2 µM, the kcat [4] was 0.11 ± 0.01 s⁻¹ and the kcat/Km [4] was 6830 M⁻¹ s⁻¹.

B2: M. alpina ω6 desaturase (Mortierella alpina) (protein)
chain: MAPPNTIDAGLTQRHISTSAAPTSAKPAFERNYQLPEFTIKEIRECIPAHCFERSGLRGLCHVAIDLTWASLLFLAATQIDKFENPLIRYLAWPAYWIMQGIVCTGIWVLAHECGHQSFSTSKTLNNTVGWILHSMLLVPYHSWRISHSKHHKATGHMTKDQVFVPKTRSQVGLPPKENAAAAVQEEDMSVHLDEEAPIVTLFWMVIQFLFGWPAYLIMNASGQDYGRWTSHFHTYSPIFEPRNFFDIIISDLGVLAALGALIYASMQLSLLTVTKYYIVPYLFVNFWLVLITFLQHTDPKLPHYREGAWNFQRGALCTVDRSFGKFLDHMFHGIVHTHVAHHLFSQMPFYHAEEATYHLKKLLGEYYVYDPSPIVVAVWRSFRECRFVEDHGDVVFFKK
notes: as for B1
Molecule B2 has a Km [5] of 3.9 ± 0.9 µM, a kcat [5] of 0.00333 ± 0.000167 s⁻¹ and a kcat/Km [5] of 667 M⁻¹ s⁻¹. The Km [6] was 5.4 ± 0.8 µM, the kcat [6] was 0.00833 ± 0.000333 s⁻¹ and the kcat/Km [6] was 1500 M⁻¹ s⁻¹.
